To fix the notation:
B1: αE-catenin ABD 671–906 (domain or fragment)
chain: AIMAQLPQEQKAKIAEQVASFQEEKSKLDAEVSKWDDSGNDIIVLAKQMCMIMMEMTDFTRGKGPLKNTSDVISAAKKIAEAGSRMDKLGRTIADHCPDSACKQDLLAYLQRIALYCHQLNICSKVKAEVQNLGGELVVSGVDSAMSLIQAAKNLMNAVVQTVKASYVASTKYQKSQGMASLNLPAVSWKMKAPEKKPLVKREKQDETQTKIKRASQKKHVNPVQALSEFKAMDSI
B2: αE-catenin ABD 671–906 W859A (domain or fragment)
chain: AIMAQLPQEQKAKIAEQVASFQEEKSKLDAEVSKWDDSGNDIIVLAKQMCMIMMEMTDFTRGKGPLKNTSDVISAAKKIAEAGSRMDKLGRTIADHCPDSACKQDLLAYLQRIALYCHQLNICSKVKAEVQNLGGELVVSGVDSAMSLIQAAKNLMNAVVQTVKASYVASTKYQKSQGMASLNLPAVSAKMKAPEKKPLVKREKQDETQTKIKRASQKKHVNPVQALSEFKAMDSI
B3: αE-catenin ABD 699–906 (domain or fragment)
chain: DAEVSKWDDSGNDIIVLAKQMCMIMMEMTDFTRGKGPLKNTSDVISAAKKIAEAGSRMDKLGRTIADHCPDSACKQDLLAYLQRIALYCHQLNICSKVKAEVQNLGGELVVSGVDSAMSLIQAAKNLMNAVVQTVKASYVASTKYQKSQGMASLNLPAVSWKMKAPEKKPLVKREKQDETQTKIKRASQKKHVNPVQALSEFKAMDSI
B4: αE-catenin ABD 696–906 (domain or fragment)
chain: SKLDAEVSKWDDSGNDIIVLAKQMCMIMMEMTDFTRGKGPLKNTSDVISAAKKIAEAGSRMDKLGRTIADHCPDSACKQDLLAYLQRIALYCHQLNICSKVKAEVQNLGGELVVSGVDSAMSLIQAAKNLMNAVVQTVKASYVASTKYQKSQGMASLNLPAVSWKMKAPEKKPLVKREKQDETQTKIKRASQKKHVNPVQALSEFKAMDSI
B5: αE-catenin ABD 671–872 (domain or fragment)
chain: AIMAQLPQEQKAKIAEQVASFQEEKSKLDAEVSKWDDSGNDIIVLAKQMCMIMMEMTDFTRGKGPLKNTSDVISAAKKIAEAGSRMDKLGRTIADHCPDSACKQDLLAYLQRIALYCHQLNICSKVKAEVQNLGGELVVSGVDSAMSLIQAAKNLMNAVVQTVKASYVASTKYQKSQGMASLNLPAVSWKMKAPEKKPLVKR
B6: αE-catenin ABD 692–906 (domain or fragment)
chain: QEEKSKLDAEVSKWDDSGNDIIVLAKQMCMIMMEMTDFTRGKGPLKNTSDVISAAKKIAEAGSRMDKLGRTIADHCPDSACKQDLLAYLQRIALYCHQLNICSKVKAEVQNLGGELVVSGVDSAMSLIQAAKNLMNAVVQTVKASYVASTKYQKSQGMASLNLPAVSWKMKAPEKKPLVKREKQDETQTKIKRASQKKHVNPVQALSEFKAMDSI
B7: αE-catenin ABD 699–868 (domain or fragment)
chain: DAEVSKWDDSGNDIIVLAKQMCMIMMEMTDFTRGKGPLKNTSDVISAAKKIAEAGSRMDKLGRTIADHCPDSACKQDLLAYLQRIALYCHQLNICSKVKAEVQNLGGELVVSGVDSAMSLIQAAKNLMNAVVQTVKASYVASTKYQKSQGMASLNLPAVSWKMKAPEKKP
B8: αE-catenin ABD 666–906 (full length) (domain or fragment)
chain: GQSARAIMAQLPQEQKAKIAEQVASFQEEKSKLDAEVSKWDDSGNDIIVLAKQMCMIMMEMTDFTRGKGPLKNTSDVISAAKKIAEAGSRMDKLGRTIADHCPDSACKQDLLAYLQRIALYCHQLNICSKVKAEVQNLGGELVVSGVDSAMSLIQAAKNLMNAVVQTVKASYVASTKYQKSQGMASLNLPAVSWKMKAPEKKPLVKREKQDETQTKIKRASQKKHVNPVQALSEFKAMDSI

This assay addresses F-actin (rabbit skeletal muscle actin, ADP-actin filaments) (rabbit, UniProt P68135 1-377). Put plainly: co-sedimentation; dilution series of ABD mixed with an equal volume of 4 μM F-actin, 30 min at room temperature, 20 mM HEPES pH 8.0, 150 mM NaCl, 1 mM DTT; pelleted at 140,717 x g for 20 min at 4°C; Coomassie bands quantified; fit with a Hill coefficient (W859A: one site-specific binding). The conditions noted are these: both partners purified.
Take B1: the Kd (as a rule, the constant that tells how readily two partners part at equilibrium) worked out at 2 µM.

B2: the Kd is > 35 µM.

B3 came in with a Kd of 0.5 µM. That is a sub-micromolar value.

B4 yielded a Kd of 0.4 µM.

As for B5, the Kd worked out at 5 µM. This Kd lies about 12-fold higher than the previous one.

B6 registered a Kd of 0.7 µM. Compared with the last molecule, the Kd is about 7.1-fold lower.

B7 returned a Kd of 2.8 µM.

As for B8, binding was characterised by a dissociation constant (Kd) of 8.5 µM.

Values taken from PMC7588230, “Structural basis of αE-catenin–F-actin catch bond behavior” (eLife, 2020).
